{
  "source": "paper PMC4521584",
  "proteins": {"B1": {"name": "WT MutS (Escherichia coli K-12) (protein)", "chain": "MSAIENFDAHTPMMQQYLRLKAQHPEILLFYRMGDFYELFYDDAKRASQLLDISLTKRGASAGEPIPMAGIPYHAVENYLAKLVNQGESVAICEQIGDPATSKGPVERKVVRIVTPGTISDEALLQERQDNLLAAIWQDSKGFGYATLDISSGRFRLSEPADRETMAAELQRTNPAELLYAEDFAEMSLIEGRRGLRRRPLWEFEIDTARQQLNLQFGTRDLVGFGVENAPRGLCAAGCLLQYAKDTQRTTLPHIRSITMEREQDSIIMDAATRRNLEITQNLAGGAENTLASVLDCTVTPMGSRMLKRWLHMPVRDTRVLLERQQTIGALQDFTAGLQPVLRQVGDLERILARLALRTARPRDLARMRHAFQQLPELRAQLETVDSAPVQALREKMGEFAELRDLLERAIIDTPPVLVRDGGVIASGYNEELDEWRALADGATDYLERLEVRERERTGLDTLKVGFNAVHGYYIQISRGQSHLAPINYMRRQTLKNAERYIIPELKEYEDKVLTSKGKALALEKQLYEELFDLLLPHLEALQQSASALAELDVLVNLAERAYTLNYTCPTFIDKPGIRITEGRHPVVEQVLNEPFIANPLNLSPQRRMLIITGPNMGGKSTYMRQTALIALMAYIGSYVPAQKVEIGPIDRIFTRVGAADDLASGRSTFMVEMTETANILHNATEYSLVLMDEIGRGTSTYDGLSLAWACAENLANKIKALTLFATHYFELTQLPEKMEGVANVHLDALEHGDTIAFMHSVQDGAASKSYGLAVAALAGVPKEVIKRARQKLRELESISPNAAATQVDGTQMSLLSVPEETSPAVEALENLDPDSLTPRQALEWIYRLKSLV", "notes": "full-length MutS from mutS gene in pET-3D, recombinant, purified; homodimer (can form tetramers)"}, "B2": {"name": "WT MutS (Escherichia coli K-12; I597A/M759D/P595A) (protein)", "chain": "B1 chain with P595A, I597A, M759D", "notes": "as for B1"}},
  "substrate": "Nc1ncnc2c1ncn2[C@@H]1O[C@H](COP(=O)(O)OP(=O)(O)OP(=O)(O)O)[C@@H](O)[C@H]1O",
  "assay": "ATPase assay coupled to NADH oxidation",
  "type": "biochemical, Escherichia coli",
  "conditions": "5 μM MutS, 3.125-500 μM ATP",
  "note": "Where a chain is given by its changes, count along the chain named. Numbers in names are those of the source.",
  "data": [
    {"protein": "B1", "values": [
      {"measurement": "Km", "result": "8.1 ± 0.7", "unit": "µM"},
      {"measurement": "kcat", "result": "0.138 ± 0.0033", "unit": "s⁻¹"}
    ]},
    {"protein": "B2", "values": [
      {"measurement": "Km", "result": "9.5 ± 1", "unit": "µM"},
      {"measurement": "kcat", "result": "0.0633 ± 0.0017", "unit": "s⁻¹"}
    ]}
  ]
}
